Data on 10 proteins can be found in PMC3596305, “Escherichia coli NemA Is an Efficient Chromate Reductase That Can Be Biologically Immobilized to Provide a Cell Free System for Remediation of Hexavalent Chromium” (PLoS ONE, 2013).

In general, Km refers to the substrate concentration at which the rate is half of its maximum. In general, kcat refers to the number of substrate molecules converted per active site and unit of time at saturation. The kcat/Km is the second-order rate constant that governs catalysis at low substrate concentration.

Substrate in series [1]: [O]=[Cr](=[O])([OH])[OH]
As to the kind of experiment: cells, lysate or membranes named. To be noted: 1 mM NADH, 50 mM Tris-Cl pH 7.0, 22°C, no lysate or lawsone added.

Substrate in the series “purified protein”: [O]=[Cr](=[O])([OH])[OH]
As to the kind of experiment: purified protein. Particulars: 1 mM NADH, 50 mM Tris-Cl pH 7.0, 22°C.

Substrate in series [2]: NC(=O)C1=CN([C@@H]2O[C@H](COP(=O)(O)OP(=O)(O)OC[C@H]3O[C@@H](n4cnc5c(N)ncnc54)[C@H](O)[C@@H]3O)[C@@H](O)[C@H]2O)C=CC1
As to the kind of experiment: diphenylcarbazide Cr(VI) assay, Lineweaver-Burk. It counts as biochemical, Escherichia coli. To be noted: 150 µM Cr(VI), 22°C, pH 7.0, free enzyme, varied: cofactor.

B1: AzoR_Ec (Escherichia coli K-12) (protein)
chain: SKVLVLKSSILAGYSQSNQLSDYFVEQWREKHSADEITVRDLAANPIPVLDGELVGALRPSDAPLTPRQQEALALSDELIAELKAHDVIVIAAPMYNFNISTQLKNYFDLVARAGVTFRYTENGPEGLVTGKKAIVITSRGGIHKDGPTDLVTPYLSTFLGFIGITDVKFVFAEGIAYGPEMAAKAQSDAKAAIDSIVSA
With B1, in series [1], the Km stood at 380 µM, the kcat worked out at 0.03 s⁻¹ and the kcat/Km came to 87 M⁻¹ s⁻¹.

B2: ChrR_Pa (Pseudomonas aeruginosa PAO1) (protein)
chain: MSDDIKVLGISGSLRSGSYNSAALQEAIGLVPPGMSIELADISGIPLYNEDVYALGFPPAVERFREQIRAADALLFATPEYNYSMAGVLKNAIDWASRPPEQPFSGKPAAILGASAGRFGTARAQYHLRQTLVFLDVHPLNKPEVMISSAQNAFDAQGRLLDDKARELIQQQLQALQLWVRRLRG
In the case of B2, in the series “purified protein”, the Michaelis-Menten constant (Km) was determined as 1300 ± 100 µM, the kcat came out at 1.5 s⁻¹ and the specificity constant (kcat/Km) came out at 1100 M⁻¹ s⁻¹.

B3: NemA_Ec (Escherichia coli K-12) (protein)
chain: MSSEKLYSPLKVGAITAANRIFMAPLTRLRSIEPGDIPTPLMAEYYRQRASAGLIISEATQISAQAKGYAGAPGIHSPEQIAAWKKITAGVHAENGHMAVQLWHTGRISHASLQPGGQAPVAPSALSAGTRTSLRDENGQAIRVETSMPRALELEEIPGIVNDFRQAIANAREAGFDLVELHSAHGYLLHQFLSPSSNHRTDQYGGSVENRARLVLEVVDAGIEEWGADRIGIRVSPIGTFQNTDNGPNEEADALYLIEQLGKRGIAYLHMSEPDWAGGEPYTDAFREKVRARFHGPIIGAGAYTVEKAETLIGKGLIDAVAFGRDWIANPDLVARLQRKAELNPQRAESFYGGGAEGYTDYPTL
notes: free enzyme (not PhaC fusion)
Regarding B3, the Km in series [2] was determined as 450 ± 30 µM. For the same protein, in “purified protein” (free enzyme), the Km turned out to be 16 ± 9 µM, the kcat is 1 s⁻¹ and the kcat/Km was 110000 M⁻¹ s⁻¹.

B4: NfsB_Vv (Vibrio vulnificus YJ016) (protein)
chain: MTIVQAAQSRYSTKAFDASRKLPEEKVAAVKELIRMSASSVNSQPWHFIVASSEEGKARIAKATQGGFAFNERKILDASHVVVFCAKTAIDEAYLLDLLESEDKDGRFADVEAKNGMHAGRSFFVNMHRFDLKDAHHWMEKQVYLNVGTLLLGASAMEIDAVPIEGFDAKVLDEEFGLREKGFTSVVIVPLGYHSEDDFNAKLPKSRWSAETVFTEI
Regarding B4, in the series “purified protein”, the Km was 2200 µM, the kcat is 0.8 s⁻¹ and the kcat/Km is 360 M⁻¹ s⁻¹.

B5: YcnD_Bs (Bacillus subtilis subsp. subtilis str. 168) (protein)
chain: MNEVIKSLTDHRSIRSYTDEPVAQEQLDQIIEAVQSAPSSINGQQVTVITVQDKERKKKISELAGGQPWIDQAPVFLLFCADFNRAKIALEDLHDFKMEITNGLESVLVGAVDAGIALGTATAAAESLGLGTVPIGAVRGNPQELIELLELPKYVFPLSGLVIGHPADRSAKKPRLPQEAVNHQETYLNQDELTSHIQAYDEQMSEYMNKRTNGKETRNWSQSIASYYERLYYPHIREMLEKQGFKVEK
Consider B5, for which, in “purified protein”, the Km amounted to 73 ± 2 µM, the turnover number (kcat) was determined as 0.37 s⁻¹ and the kcat/Km worked out at 5000 M⁻¹ s⁻¹.

B6: YdgI_Bs (Bacillus subtilis subsp. subtilis str. 168) (protein)
chain: MIKTNDFMEIMKGRRSIRNYDPAVKISKEEMTEILEEATTAPSSVNAQPWRFLVIDSPEGKEKLAPLASFNQTQVTTSSAVIAVFADMNNADYLEEIYSKAVELGYMPQEVKDRQIAALTAHFEKLPAQVNRETILIDGGLVSMQLMLTARAHGYDTNPIGGYDKENIAETFGLDKERYVPVMLLSIGKAADEGYASYRLPIDTIAEWK
As to B6, in “purified protein”, the Km was 63 ± 1 µM, the kcat was 0.48 s⁻¹ and the kcat/Km is 7700 M⁻¹ s⁻¹.

B7: NfsB_Kp (Klebsiella pneumoniae subsp. pneumoniae MGH 78578) (protein)
chain: MDIVSVALKRYSTKAFDATKKLTAGEAEQLKTLLQYSPSSTNSQPWHFIVASTDEGKARVAKAASGTYVFNERKILDASHVVVFCAKTAMDDAWLQRVVDQEEADGRFATPDAKAANHKGRTFFADMHRKELKDDDQWMAKQVYLNVGNFLLGVAAMGLDAVPIEGVDFAILDEEFDLKAQGYTSLVVVPVGHHSAEDFNATLPKSRLPQSTTITEI
In the case of B7, in “purified protein”, the Km was found to be 47 ± 4 µM, the kcat is 0.37 s⁻¹ and the kcat/Km was found to be 7800 M⁻¹ s⁻¹.

B8: Frp_Vh1 (Vibrio harveyi) (protein)
chain: MNNTIETILAHRSIRKFTAVPITDEQRQTIIQAGLAASSSSMLQVVSIVRVTDSEKRNELAQFAGNQAYVESAAEFLVFCIDYQRHATINPDVQADFTELTLIGAVDSGIMAQNCLLAAESMGLGGVYIGGLRNSAAQVDELLGLPENSAVLFGMCLGHPDQNPEVKPRLPAHVVVHENQYQELNLDDIQSYDQTMQAYYASRTSNQKLSTWSQEVTGKLAGESRPHILPYLNSKGLAKR
B8: in “purified protein”, the Km was found to be 3.8 ± 0.5 µM, the kcat was 0.32 s⁻¹ and the kcat/Km stood at 84000 M⁻¹ s⁻¹.

B9: NfsA_Kp (Klebsiella pneumoniae) (protein)
chain: MTPTIELLRSHRSIRHFTDAPVSDEQRAEIIASAQAASTSSFLQCTSIIRITDPALRERLVPLTGGQQHVAQAAEFWVFCADFNRHLQICPQAQLGLAEQLLIGVVDTALLAQNALTAAESLGLGGVYIGGLRNSIEAVTELLELPQHVLPLFGLCLGWPADNPDIKPRMPAAMLVHENRYQPLDNALLAEYDEQLAHYYLSRGSNARRDTWSDHIRRTIVKESRPFILDYLHKQGWATR
Regarding B9, in the series “purified protein”, the Michaelis constant (Km) was 1.7 ± 1.0 µM, the kcat was 0.12 s⁻¹ and the specificity constant (kcat/Km) is 69000 M⁻¹ s⁻¹.

B10: MdaB_Ec (Escherichia coli K-12) (protein)
chain: SNILIINGAKKFAHSNGQLNDTLTEVADGTLRDLGHDVRIVRADSDYDVKAEVQNFLWADVVIWQMPGWWMGAPWTVKKYIDDVFTEGHGTLYASDGRTRKDPSKKYGSGGLVQGKKYMLSLTWNAPMEAFTEKDQFFHGVGVDGVYLPFHKANQFLGMEPLPTFIANDVIKMPDVPRYTEEYRKHLVEIFG
Consider B10, for which, in the series “purified protein”, the Km is 170 ± 120 µM, the kcat turned out to be 0.2 s⁻¹ and the kcat/Km turned out to be 1100 M⁻¹ s⁻¹.
